Columns and labels:
[1] = biological target: PSGL-1 (P-选择蛋白糖蛋白配体-1) (human) (UniProt Q14242); assay: FACS competition on ML2 cells, 200ng KPL-1 against IgG Y1-PE
[2] = biological target: PSGL-1 (P-选择蛋白糖蛋白配体-1) (human) (UniProt Q14242); assay: FACS on ML2 cells, KPL-1-PE alone

Sequence of UniProt Q14242 (Q14242 42-412): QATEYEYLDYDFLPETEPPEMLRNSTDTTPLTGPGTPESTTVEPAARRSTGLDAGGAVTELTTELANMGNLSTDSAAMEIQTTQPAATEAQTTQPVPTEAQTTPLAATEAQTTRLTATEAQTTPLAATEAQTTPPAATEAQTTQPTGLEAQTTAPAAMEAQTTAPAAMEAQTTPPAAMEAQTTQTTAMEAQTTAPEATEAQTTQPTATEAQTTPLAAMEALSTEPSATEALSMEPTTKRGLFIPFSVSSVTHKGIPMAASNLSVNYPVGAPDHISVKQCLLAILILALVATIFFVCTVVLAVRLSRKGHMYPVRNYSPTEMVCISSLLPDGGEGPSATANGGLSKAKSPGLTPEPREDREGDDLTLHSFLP

中值 of IgG Y1-PE with competitor (median fluorescence) [1]: 2
抑制百分比 [1]: 100%
中值 (median fluorescence) [2]: 700
Substance: KPL-1 (商业化供应的抗PSGL1小鼠单克隆抗体) (antibody)

Source: CN1678347A
